To fix the notation:
B1: Protein argonaute (Schizosaccharomyces pombe (strain ATCC 38366 / 972)), O74957 (parent)
chain: MSYKPSSEIALRPGYGGLGKQITLKANFFQIISLPNETINQYHVIVGDGSRVPRKQSQLIWNSKEVKQYFGSSWMNSVYDGRSMCWSKGDIADGTIKVNIGSESHPREIEFSIQKSSKINLHTLSQFVNSKYSSDPQVLSSIMFLDLLLKKKPSETLFGFMHSFFTGENGVSLGGGVEAWKGFYQSIRPNQGFMSVNVDISSSAFWRNDSLLQILMEYTDCSNVRDLTRFDLKRLSRKFRFLKVTCQHRNNVGTDLANRVYSIEGFSSKSASDSFFVRRLNGEEQKISVAEYFLENHNVRLQYPNLPCILVKNGAMLPIEFCFVVKGQRYTAKLNSDQTANMIRFAVQRPFERVQQIDDFVHQMDWDTDPYLTQYGMKIQKKMLEVPARVLETPSIRYGGDCIERPVSGRWNLRGKRFLDPPRAPIRSWAVMCFTSTRRLPMRGIENFLQTYVQTLTSLGINFVMKKPPVLYADIRGSVEELCITLYKKAEQVGNAPPDYLFFILDKNSPEPYGSIKRVCNTMLGVPSQCAISKHILQSKPQYCANLGMKINVKVGGINCSLIPKSNPLGNVPTLILGGDVYHPGVGATGVSIASIVASVDLNGCKYTAVSRSQPRHQEVIEGMKDIVVYLLQGFRAMTKQQPQRIIYFRDGTSEGQFLSVINDELSQIKEACHSLSPKYNPKILVCTTQKRHHARFFIKNKSDGDRNGNPLPGTIIEKHVTHPYQYDFYLISHPSLQGVSVPVHYTVLHDEIQMPPDQFQTLCYNLCYVYARATSAVSLVPPVYYAHLVSNLARYQDVTADDTFVETSEASMDQEVKPLLALSSKLKTKMWYM
partner: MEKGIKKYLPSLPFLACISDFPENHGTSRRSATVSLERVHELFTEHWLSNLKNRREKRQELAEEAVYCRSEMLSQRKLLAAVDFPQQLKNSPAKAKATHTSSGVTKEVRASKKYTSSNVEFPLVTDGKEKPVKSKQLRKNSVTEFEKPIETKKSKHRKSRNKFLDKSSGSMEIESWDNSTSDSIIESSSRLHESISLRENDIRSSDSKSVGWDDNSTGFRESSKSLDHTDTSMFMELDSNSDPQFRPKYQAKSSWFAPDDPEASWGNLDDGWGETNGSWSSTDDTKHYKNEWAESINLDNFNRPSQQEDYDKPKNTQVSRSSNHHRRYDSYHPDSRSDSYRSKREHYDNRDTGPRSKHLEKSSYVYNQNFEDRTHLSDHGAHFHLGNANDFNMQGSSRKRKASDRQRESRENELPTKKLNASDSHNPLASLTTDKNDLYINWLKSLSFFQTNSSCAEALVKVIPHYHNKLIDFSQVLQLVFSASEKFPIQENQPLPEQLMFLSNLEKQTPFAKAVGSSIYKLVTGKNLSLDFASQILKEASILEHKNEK

In the assay the parent is B1. Conditions: with tas3_schpo tas3, O94687.
On to F276A;R773E, for which the “effect of a mutation on the interaction” value is “disrupting interaction strength”.
The same measure for R773E: “disrupting interaction strength”.

For the origin of these results see IntAct's records for PubMed 25730778.
